The values below come from article PMC7367685, “Reconstitution reveals two paths of force transmission through the kinetochore” (eLife, 2020).

Changes are numbered by the printed parent chain. Numbers in names are those of the source.

The target of assay [1] is Cse4-NCP: nucleosome core particle of K. lactis 6XHis-H2A, K. lactis 6XHis-H2B, S. cerevisiae Cse4 and K. lactis 6XHis-H4, wrapped in 601 DNA (Kluyveromyces lactis | S. cerevisiae) (UniProt P36012). Kind of assay: optical trap force-ramp rupture assay; same beads and free proteins (10 nM each) as the attachment assay; bead on a growing microtubule tip, 1 pN preload, then a ramp of 0.25 pN/s until detachment; median rupture force of the whole chain; not single-molecule conditions; room temperature.

Assay [2] has the same target. Briefly: optical trap bead-microtubule attachment assay (self-assembly and microtubule binding); one His6-tagged subcomplex on anti-His5 polystyrene beads (10 nM on 3.5 pM beads), the other subcomplexes free at 10 nM each; the bead was brought to a single growing microtubule with the laser trap, and a bead whose contact did not persist with the laser off counted as a nonbinder; no external force; BRB80 growth buffer with 1 mM GTP, room temperature; in negative controls one subcomplex was omitted.

The target of assay [3] is T1, Ndc80c (Ndc80, Nuf2, Spc24-Flag, Spc25) (S. cerevisiae, UniProt P40460 1-691; P33895 1-451; Q04477 1-213; P40014 1-221).
T1 construct: Ndc80, S. cerevisiae; Nuf2, S. cerevisiae; Spc24, S. cerevisiae; Spc25, S. cerevisiae; also called Ndc80 complex; pJT048 with Ndc80/Nuf2; copies: + + +
Briefly: optical trap bead-microtubule attachment assay (self-assembly and microtubule binding); one His6-tagged subcomplex on anti-His5 polystyrene beads (10 nM on 3.5 pM beads), the other subcomplexes free at 10 nM each; the bead was brought to a single growing microtubule with the laser trap, and a bead whose contact did not persist with the laser off counted as a nonbinder; no external force; BRB80 growth buffer with 1 …. The settings on record: both partners purified.

The target of assay [4] is T1, Ndc80c (Ndc80, Nuf2, Spc24-Flag, Spc25). Kind of assay: optical trap force-ramp rupture assay; same beads and free proteins (10 nM each) as the attachment assay; bead on a growing microtubule tip, 1 pN preload, then a ramp of 0.25 pN/s until detachment; median rupture force of the whole chain; not single-molecule conditions; room temperature. The settings on record: both partners purified.

T1 sequence (P40460 whole entry, chain 1 of 4): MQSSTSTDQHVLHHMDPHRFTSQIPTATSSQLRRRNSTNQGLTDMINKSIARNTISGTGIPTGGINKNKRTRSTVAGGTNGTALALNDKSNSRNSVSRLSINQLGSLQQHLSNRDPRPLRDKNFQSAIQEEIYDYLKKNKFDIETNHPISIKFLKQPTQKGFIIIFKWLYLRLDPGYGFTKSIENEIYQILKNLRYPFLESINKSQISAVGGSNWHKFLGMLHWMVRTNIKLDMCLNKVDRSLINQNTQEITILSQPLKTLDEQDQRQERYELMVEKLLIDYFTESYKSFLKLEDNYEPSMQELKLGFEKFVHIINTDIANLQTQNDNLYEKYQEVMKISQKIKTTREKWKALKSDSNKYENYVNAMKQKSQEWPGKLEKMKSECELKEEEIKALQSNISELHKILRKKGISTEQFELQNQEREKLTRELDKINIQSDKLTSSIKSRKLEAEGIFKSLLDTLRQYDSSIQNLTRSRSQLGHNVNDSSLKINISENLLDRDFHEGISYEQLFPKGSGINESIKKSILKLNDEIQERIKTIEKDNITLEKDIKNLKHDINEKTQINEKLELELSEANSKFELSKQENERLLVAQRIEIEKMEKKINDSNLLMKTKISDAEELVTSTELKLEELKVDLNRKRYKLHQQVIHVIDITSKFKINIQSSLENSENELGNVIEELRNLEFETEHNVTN
T1 sequence (P33895 whole entry, chain 2 of 4): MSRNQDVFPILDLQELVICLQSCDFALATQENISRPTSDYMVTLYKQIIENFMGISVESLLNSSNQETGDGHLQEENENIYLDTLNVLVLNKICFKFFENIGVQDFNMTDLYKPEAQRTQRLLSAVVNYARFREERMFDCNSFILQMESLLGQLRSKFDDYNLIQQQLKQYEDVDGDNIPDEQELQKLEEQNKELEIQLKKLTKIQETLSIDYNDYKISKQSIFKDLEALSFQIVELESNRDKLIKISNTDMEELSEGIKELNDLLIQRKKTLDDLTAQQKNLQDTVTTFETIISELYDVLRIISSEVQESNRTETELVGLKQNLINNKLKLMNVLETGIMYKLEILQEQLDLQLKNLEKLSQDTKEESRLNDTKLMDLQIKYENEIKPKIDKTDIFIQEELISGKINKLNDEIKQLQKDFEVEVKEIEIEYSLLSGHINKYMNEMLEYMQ
T1 sequence (Q04477 whole entry, chain 3 of 4): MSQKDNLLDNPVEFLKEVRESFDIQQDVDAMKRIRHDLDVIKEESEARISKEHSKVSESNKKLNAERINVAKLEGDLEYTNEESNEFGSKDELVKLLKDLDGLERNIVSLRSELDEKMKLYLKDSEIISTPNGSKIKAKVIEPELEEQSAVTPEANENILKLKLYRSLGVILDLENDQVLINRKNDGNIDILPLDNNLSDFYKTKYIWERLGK
T1 sequence (P40014 whole entry, chain 4 of 4): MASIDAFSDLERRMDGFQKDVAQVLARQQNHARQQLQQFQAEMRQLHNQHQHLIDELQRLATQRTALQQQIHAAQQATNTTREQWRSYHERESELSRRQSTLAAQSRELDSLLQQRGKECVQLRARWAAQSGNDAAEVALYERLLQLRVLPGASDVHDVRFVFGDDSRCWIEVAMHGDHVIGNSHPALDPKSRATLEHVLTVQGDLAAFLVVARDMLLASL

In assay [1], “Mif2-linker-(27-392)MBP (from UniProt P35201 1-549) (natural protein)” came in with a median rupture force of Cse4-NCP-based chains with both Mif2 and OA free (with 2D-MIND and Ndc80c) of 4 pN; a median rupture force of the whole chain Cse4-NCP/Mif2/2D-MIND/Ndc80c of 3.3 pN. For the same molecule, in assay [2], the percent of beads that bound microtubules (Cse4-NCP beads with free Mif2, 2D-MIND and Ndc80c) was 24%.

B1: MIND complex, wild type (Nsl1, FLAG-Dsn1, Mtw1, Nnf1) (complex, S. cerevisiae)
chain 1: MSQGQSKKLDVTVEQLRSIYHQFHDILEEKTDLHLPKKEYDDDAVRREVQIQLQEFLLSAMTMASKSLEVVNADTVGKTVKQLIMESQEKYMEPFDLDLNEQVRKMYQEWEDETVKVAQLRQTGPAKINEVYNNSKDEYLAQLDGRIGVLQARMMQQQSADHDDSTDDADDHINWEHIKQDYVASLNELYQTQQDLPKVRYNVEKVKRLMDFLEED
chain 2: MSLEPTQTVSGTPPMLHQRTHKQVYPLRMETIPILESDSKATLQSNEPTQKDEEETEYFENKQSVSNLSPDLKFKRHKNKHIQGFPTLGERLDNLQDIKKAKRVENFNSSAPIADDNHSGDATANATANATANATANVNASAMPAPYMPYYYYYHPMNAPTPAMIPYPGSPMHSIMPNSSLQPFYSQPTAAGGPDMTTPQNISSSQQLLPAPQLFPYGSFHQQQLQQPHYIQRTRERKKSIGSQRGRRLSMLASQANGGSTIISPHKDIPEEDFYTVVGNASFGKNLQIRQLFNWCLMRSLHKLELKAKNQEEEGELEHLTKKSKLESTKAETDYVDPKRLAMVIIKEFVDDLKKDHIAIDWEDEEKYEDEDEEKILDNTENYDDTELRQLFQENDDDDDDDDEVDYSEIQRSRRKFSERRKALPKEPKKLLPNSKNVENTKNLSILTSKVNAIKNEVKEWAVTLDTSRPDLEWQELTSFSSQPLEPLSDTEEPDLAIADVETKLETKVDELRYQSHILNSHSLALNEITNSKVNKLNIETMRKISSETDDDHSQVINPQQLLKGLSLSFSKKLDL
chain 3: MSAPTMRSTSILTEHLGYPPISLVDDIINAVNEIMYKCTAAMEKYLLSKSKIGEEDYGEEIKSGVAKLESLLENSVDKNFDKLELYVLRNVLRIPEEYLDANVFRLENQKDLVIVDENELKKSEEKLREKVNDVELAFKKNEMLLKRVTKVKRLLFTIRGFKQKLNELLKCKDDVQLQKILESLKPIDDTMTLLTDSLRKLYVDSESTSSTEEVEALLQRLKTNGKQNNKDFRTRYIDIRTNNVLRKLGLLGDKEDEKQSAKPDARTQAGDIVSIDIEEPQLDLLDDVL
chain 4: MVNSHGIRYIRLKQVFNRALDQSISKLQSWDKVSSCFPQYVNSKQGAINVANCQRQLTEFWTELCQREFKEIMEERNVEQKLNELDELILEAKERYTDRDQDEVNKGPAIDELSSKELVECHLYSQRMHAIHEIDERLAKVNEMNDQLAQELKDLETQVEVEKNEIGKMYDEYLGSHTDQPANVLLVQSLNDMVLELKENY
notes: Nsl1, S. cerevisiae; Dsn1, S. cerevisiae; Mtw1, S. cerevisiae; Nnf1, S. cerevisiae; also called wild-type MIND; pGH46; copies: + + +
With B1, in assay [3], the binding result was “binds”.

B2: 2D-MIND complex (FLAG-Nsl1, S240D, S250D-Dsn1, Mtw1, Nnf1) (complex, S. cerevisiae)
chain 1: B1 chain 1
chain 2: B1 chain 2 with S240D, S250D
chain 3: B1 chain 3
chain 4: B1 chain 4
notes: Nsl1, S. cerevisiae; Dsn1, S. cerevisiae, with two phosphomimetic substitutions; Mtw1, S. cerevisiae; Nnf1, S. cerevisiae; also called phosphomimetic MIND; pGH62; copies: + + +
On to B2, for which, in assay [4], the binding result is listed as “binds”.
